Experimental data taken from patent US20110165161A1, “ANTI-EPCAM ANTIBODIES THAT INDUCE APOPTOSIS OF CANCER CELLS AND METHODS USING SAME” (priority 2009, published 2011).
Residue numbers refer to the chain shown, from its start.

B1: 2D11: murine anti-human EpCAM monoclonal antibody (IgG1, K), hybridoma m322-2D11.19; VH SEQ ID NO:15, VL SEQ ID NO:17 (antibody, listed as Mus musculus, V domains shown)
VH: QIQLVQSGPELKKPGETVKISCKASGYTFTNYGMNWVKQAPGKGLKWMGWINTNTGEATYVEEFKGRVVFSLETSASTAYLQINNLKNEDTATYFCARIGYVWYFDVWGAGTTVTVSS
VL: DIVMSQSPSSLAVSAGEKVTMSCKSSQSLFSSRTRKNYLAWYQQKPGQSPKLLIYWASTRESGVPDRFTGSGSGTDFTLTINSVQAEDLAVYYCKHSNNLFTFGSGTKLEIKR
B2: 6D11: murine anti-human EpCAM monoclonal antibody (IgG1, K), hybridoma m338-6D11.8; VH SEQ ID NO:23, VL SEQ ID NO:25 (antibody, listed as Mus musculus, V domains shown)
VH: EVQLVESGGDLVKPGGSLKLSCAASGFAFDSYGMSWIRQTPGTRLEWVATISSGGYYTYYEDNVKGRFIISRDNAKNTLDLQMSGLKSEDAATYYCARRGNYDVDYYAMDYWGQGTSVIVSS
VL: DVVLTQIPLSLPVSLGDQASISCRSSQSLEHSNGNTYLHWYLQKPGQSPKLLIYKVSNRFSGVPDRFSGSGSGTDFTLKISRVEAEDLGVYFCSQSTHVPPWTFGGGTKLEFKR
B3: 4D2: murine anti-human EpCAM monoclonal antibody (IgG1, K), hybridoma m338-4D2.20; VH SEQ ID NO:19, VL SEQ ID NO:21 (antibody, listed as Mus musculus, V domains shown)
VH: B2 VH with I37V, T43K, E61Q, N63S, I69T, I70T, G85S, A91S, T93I, I119T
VL: B2 VL with L4M, I7T, E30V, K79R, F112I

What follows are molecules tested on Colorectal cancer DLD-1 cells (assay: Antibody cytotoxicity assay (Annexin V + PI), DLD-1). Conditions: 1, 3 and 10 μg/ml, overnight.
Format: cell-based
Description: (§1) After a 17-20 hr incubation at 37° C., cells were stained with 0.3 μl of FITC-conjugated Annexin V (Strong Biotech Corp. Cat. No. AVK250) in 50 μl Annexin V binding buffer (Strong Biotech Corp. Cat. No. AVK250) at RT for 20 min. After wash, the cells were then stained with 0.3 μl of propidium iodide in 200 μl Annexin V binding buffer. Annexin V and Propidium Iodide were used as a joint indicator for cell death. The data were acquired with BD FACSCalibur based on an acquisition of 3,000-5,000 cells and analyzed with the Cell Quest software. The combined percentages of the Annexin V+/PI+, Annexin V+/PI− and Annexin V−/PI+populations were considered as dead cells.

Row | Molecule | Induction of cell death (in words)
1 | B1 | substantial cell death
2 | B2 | substantial cell death
3 | B3 | substantial cell death

What follows are molecules tested on Prostate cancer LNCaP cells (assay: Antibody cytotoxicity assay (Annexin V + PI), LNCaP). Conditions: 1, 3 and 10 μg/ml, overnight.
Format: cell-based
Description: as §1

Row | Molecule | Induction of cell death (in words)
4 | B1 | substantial cell death
5 | B2 | substantial cell death
6 | B3 | substantial cell death

These molecules were tested on Gastric cancer NCI-N87 cells (assay: Antibody cytotoxicity assay (Annexin V + PI), NCI-N87). Conditions: 1, 3 and 10 μg/ml, overnight.
Format: cell-based
Description: as §1

Row | Molecule | Induction of cell death (in words)
7 | B1 | substantial cell death
8 | B2 | substantial cell death
9 | B3 | substantial cell death

Each molecule was assayed on Pharynx cancer FaDu cells (assay: Antibody cytotoxicity assay (Annexin V + PI), FaDu). Conditions: 1, 3 and 10 μg/ml, overnight.
Format: cell-based
Description: as §1

Row | Molecule | Induction of cell death (in words)
10 | B1 | substantial cell death
11 | B2 | substantial cell death
12 | B3 | substantial cell death

Each molecule was assayed on Breast cancer T-47D cells (assay: Antibody cytotoxicity assay (Annexin V + PI), T-47D). Conditions: 1, 3 and 10 μg/ml, overnight.
Format: cell-based
Description: as §1

Row | Molecule | Induction of cell death (in words)
13 | B1 | substantial cell death
14 | B2 | substantial cell death
15 | B3 | substantial cell death

These molecules were tested on CHO parental cells (assay: FACS binding of anti-EpCAM antibodies to CHO parental cells). Conditions: antibody 0.1 μg/ml; HPS at 300x dilution.
Set-up: species or system Chinese hamster
Description: 1×10^5 CHO/EpCAM or CHO parental cells were seeded in each well of a v-bottomed 96-well plate and incubated with purified anti-EpCAM antibodies or mouse IgG control antibody 9E10 at concentration of 0.1 μg/ml. A 300× dilution of human cell hyper-immune serum (HPS 300×) was used as binding positive control for both cell lines here. After 1 hr incubation at 4° C., cells were washed twice with 200 μl FACS buffer (1×PBS containing 1% FBS), stained with 100 μl of 1 μg/ml goat-anti-mouse IgG-PE (Southern Biotech, Cat. No. 1032-09) in FACS buffer and then incubated at 4° C. for 30 min. Cells were washed thrice with FACS buffer and analyzed by flow cytometry (BD LSR, BD Life Sciences).

Row | Molecule | Binding (FACS, Mean fluorescence intensity (MFI)) CHO
16 | B1 | 6
17 | B2 | 5
18 | B3 | 5

The molecules below were run on Ovarian cancer NIH:OVCAR-3 cells (assay: Antibody cytotoxicity assay (Annexin V + PI), NIH:OVCAR-3). Conditions: 1, 3 and 10 μg/ml, overnight.
Format: cell-based
Description: as §1

Row | Molecule | Induction of cell death (in words)
19 | B1 | substantial cell death
20 | B2 | substantial cell death
21 | B3 | substantial cell death

These molecules were tested on NCI-H358 lung cancer cells (assay: Cell death in NCI-H358 lung cancer cells (Annexin V + PI)). Conditions: mean of 5 experiments; mAb 10 μg/ml; 17 hr.
Format: cell-based, human
Description: 5×10^4 NCI-H358 cells were seeded to each well of a 96-well plate, and then 10 μg/ml of anti-EpCAM or control (9E10) mAbs diluted in the medium was added into the cells. After a 17-hr incubation at 37° C., the cells were stained with 0.3 μl of FITC-conjugated Annexin V (Strong Biotech Corp. Cat. No. AVK250) in 50 μl Annexin V binding buffer (Strong Biotech Corp. Cat. No. AVK250) at RT for 20 min. After wash, the cells were then stained with 0.3 μl of propidium iodide in 200 μl Annexin V binding buffer. Annexin V and Propidium Iodide were used as a joint indicator for measuring cell death. The data were acquired with BD FACSCalibur based on an acquisition of 3,000-5,000 cells and analyzed with the Cell Quest software. The combined percentages of the Annexin V+/PI+, Annexin V+/PI− and Annexin V−/PI+populations were considered as dead cells.

Row | Molecule | % of Annexin V + PI staining (untreated background subtracted), Mean ± SEM [%]
22 | B1 | 39.4 ± 3.0
23 | B2 | 42.4 ± 1.0
24 | B3 | 43.6 ± 0.9

Each molecule was assayed on Lung cancer NCI-H520 cells (assay: Antibody cytotoxicity assay (Annexin V + PI), NCI-H520). Conditions: 1, 3 and 10 μg/ml, overnight.
Format: cell-based
Description: as §1

Row | Molecule | Induction of cell death (in words)
25 | B1 | substantial cell death
26 | B2 | substantial cell death
27 | B3 | substantial cell death
